From publication PMC13499124, “Insights into how JIP3 and JIP4 adaptor proteins relieve the auto-inhibited form of the kinesin-1 motor” (The Journal of Biological Chemistry, 2026)

Experiments:
[1] = biological target: T1, KIF5B-CC3b-CC4-dt fragment (human, UniProt P33176 771-963); experiment: MST; labelled JIP3/4 fragment (Blue-NHS dye) constant at 20 nM, KIF5B fragment titrated 120 pM to 4 uM (up to 38.2 uM when needed); 50 mM Tris pH 8.0, 200 mM NaCl, 10 mM MgCl2, 0.05% Tween 20; room temperature; Monolith NT.115, premium capillaries, MST-on 0.5-1.5 s; 1:1 Kd fit; three replicates; the paper calls its affinities relative measurements; settings: both partners purified
T1 construct: kinesin-1 heavy chain KIF5B, human, NP_004512.1, residues 771-963 (last part of CC3, CC4 and distal tail); pET28 plasmid, NdeI/XhoI; the methods call it CC3-CC4-dt; also called KIF5B-CC3-CC4-dt; KIF5B-Tail; source: E. coli Rosetta, purified (His-Trap, Superdex 75 gel filtration); not shown: His6, N-terminal, kept

[2] = biological target: the molecule itself; experiment: SEC-MALS; JIP3/4-Nter fragments in solution, single peak; dimer; conditions not shown (Fig. S1B, Table S2)
[3] = biological target: T1, KIF5B-CC3b-CC4-dt fragment; experiment: MST; labelled JIP3/4 fragment (Blue-NHS dye) constant at 20 nM, KIF5B fragment titrated 120 pM to 4 uM (up to 38.2 uM when needed); 50 mM Tris pH 8.0, 200 mM NaCl, 10 mM MgCl2, 0.05% Tween 20; room temperature; Monolith NT.115, premium capillaries, MST-on 0.5-1.5 s; 1:1 Kd fit; three replicates; the paper calls its affinities relative measurements; settings: both partners purified; remark: listed apart in the source
[4] = biological target: T2, KIF5B-CC3b-CC4 fragment, 6-histidine tag removed (human, UniProt P33176 771-914); experiment: MST + other fluorescence titration; JIP3-N-RH1-lz3 wild type and alanine mutants labelled with NHS-fluorescein, constant at 20 nM; KIF5B-CC3b-CC4 without His tag titrated; 50 mM Tris pH 8.0, 200 mM NaCl, 10 mM MgCl2, 0.05% Tween 20; room temperature; Monolith NT.115; the change in overall fluorescence intensity was used for the Kd; 1:1 fit; settings: both partners purified
T2 construct: kinesin-1 heavy chain KIF5B, human, NP_004512.1, residues 771-914 (last part of CC3 and CC4); source: E. coli Rosetta, purified (His-Trap, Superdex 75 gel filtration); not shown: His6, N-terminal, cleaved
T2 sequence (P33176 771-914): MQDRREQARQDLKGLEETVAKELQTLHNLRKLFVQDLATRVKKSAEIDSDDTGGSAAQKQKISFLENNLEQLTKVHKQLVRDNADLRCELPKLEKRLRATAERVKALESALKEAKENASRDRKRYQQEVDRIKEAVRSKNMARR

T1 sequence (P33176 771-963): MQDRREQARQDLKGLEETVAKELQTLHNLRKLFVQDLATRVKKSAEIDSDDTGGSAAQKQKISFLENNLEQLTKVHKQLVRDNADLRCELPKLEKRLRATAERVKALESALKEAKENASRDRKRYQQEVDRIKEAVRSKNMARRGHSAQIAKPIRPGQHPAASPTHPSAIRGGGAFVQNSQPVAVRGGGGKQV

| Binder | Kd [1] [nM] | Kd [4] [nM] | also measured |
| --- | --- | --- | --- |
| JIP4-N-RH1-lz3 fragment (domain or fragment, UniProt O60271 1-95, looked up, labelled with a fluorescent dye in the MST assay (legend of Figure 4), JIP4, N-terminus (17 residues), RH1 domain and first three heptad repeats of LZI; also called wild-type JIP4-N-RH1-lz3) MELEDGVVYQEEPGGSGAVMSERVSGLAGSIYREFERLIGRYDEEVVKELMPLVVAVLENLDSVFAQDQEHQVELELLRDDNEQLITQYEREKAL | 777 ± 146 |  | stoichiometry N [2]: 2 |
| JIP4-RH1-lz3 fragment (domain or fragment, UniProt O60271 18-95, looked up, labelled with a fluorescent dye in the MST assay (legend of Figure 4), JIP4, RH1 domain and first three heptad repeats of LZI, without the 17-residue N-terminus) AVMSERVSGLAGSIYREFERLIGRYDEEVVKELMPLVVAVLENLDSVFAQDQEHQVELELLRDDNEQLITQYEREKAL | 682 ± 187 |  | stoichiometry N [2]: 2 |
| JIP3-RH1-LZI fragment (domain or fragment, UniProt Q9ESN9 22-187, looked up, labelled with the dye NHS-NT-488 (Protein Labelling Kit Blue-NHS, NanoTemper) in the MST assay, JIP3, RH1 domain followed by the entire LZI coiled-coil, without the N-terminus; also called RH1-LZ1) GSVMSERVSGLAGSIYREFERLIHCYDEEVVKELMPLVVNVLENLDSVLSENQEHEVELELLREDNEQLLTQYEREKALRKQAEEKFIEFEDALEQEKKELQIQVEHYEFQTRQLELKAKNYADQISRLEERESEMKKEYNALHQRHTEMIQTYVEHIERSKMQQV |  |  | Kd [3]: 50.5 ± 12.9 nM |
| JIP3-N-RH1-lz3 E39A (domain or fragment, mouse, UniProt Q9ESN9-1 1-100, looked up, labelled with NHS-fluorescein (Thermo Fisher Scientific), JIP3, mouse, NP_038959.2, residues 1-100 (N-RH1-lz3); also called JIP3-E39A; source: E. coli Rosetta, purified (His-Trap, gel filtration, thrombin cleavage, gel filtration); not shown: His tag, N-terminal, cleaved; thioredoxin, N-terminal, cleaved) MMEIQMDEGGGVVVYQDDYCSGSVMSERVSGLAGSIYRAFERLIHCYDEEVVKELMPLVVNVLENLDSVLSENQEHEVELELLREDNEQLLTQYEREKAL |  | 395 ± 137 |  |
| JIP3-N-RH1-lz3 R38A (domain or fragment, mouse, UniProt Q9ESN9-1 1-100, looked up, labelled with NHS-fluorescein (Thermo Fisher Scientific), JIP3, mouse, NP_038959.2, residues 1-100 (N-RH1-lz3); also called JIP3-R38A; source: E. coli Rosetta, purified (His-Trap, gel filtration, thrombin cleavage, gel filtration); not shown: His tag, N-terminal, cleaved; thioredoxin, N-terminal, cleaved) MMEIQMDEGGGVVVYQDDYCSGSVMSERVSGLAGSIYAEFERLIHCYDEEVVKELMPLVVNVLENLDSVLSENQEHEVELELLREDNEQLLTQYEREKAL |  | 151 ± 27.8 |  |
| JIP3-N-RH1-lz3 E27A (domain or fragment, mouse, UniProt Q9ESN9-1 1-100, looked up, labelled with NHS-fluorescein (Thermo Fisher Scientific), JIP3, mouse, NP_038959.2, residues 1-100 (N-RH1-lz3); also called JIP3-E27A; source: E. coli Rosetta, purified (His-Trap, gel filtration, thrombin cleavage, gel filtration); not shown: His tag, N-terminal, cleaved; thioredoxin, N-terminal, cleaved) MMEIQMDEGGGVVVYQDDYCSGSVMSARVSGLAGSIYREFERLIHCYDEEVVKELMPLVVNVLENLDSVLSENQEHEVELELLREDNEQLLTQYEREKAL |  | 215 ± 57.3 |  |
| JIP3-N-RH1-lz3 L70F-S71A-E72Q-N73D (domain or fragment, mouse, UniProt Q9ESN9-1 1-100, looked up, labelled with a fluorescent dye in the MST assay (legend of Figure 4), JIP3, mouse, NP_038959.2, residues 1-100 (N-RH1-lz3), residues changed to those of JIP4; also called JIP3-L70F-S71A-E72Q-N73D; source: E. coli Rosetta, purified (His-Trap, gel filtration, thrombin cleavage, gel filtration); not shown: His tag, N-terminal, cleaved; thioredoxin, N-terminal, cleaved) MMEIQMDEGGGVVVYQDDYCSGSVMSERVSGLAGSIYREFERLIHCYDEEVVKELMPLVVNVLENLDSVFAQDQEHEVELELLREDNEQLLTQYEREKAL | 47.5 ± 4.6 |  |  |
| JIP3-N-RH1-lz3 E54A (domain or fragment, mouse, UniProt Q9ESN9-1 1-100, looked up, labelled with NHS-fluorescein (Thermo Fisher Scientific), JIP3, mouse, NP_038959.2, residues 1-100 (N-RH1-lz3); also called JIP3-E54A; source: E. coli Rosetta, purified (His-Trap, gel filtration, thrombin cleavage, gel filtration); not shown: His tag, N-terminal, cleaved; thioredoxin, N-terminal, cleaved) MMEIQMDEGGGVVVYQDDYCSGSVMSERVSGLAGSIYREFERLIHCYDEEVVKALMPLVVNVLENLDSVLSENQEHEVELELLREDNEQLLTQYEREKAL |  | 226 ± 26.4 |  |
